The text below walks through data of the supplement of paper PMC7877785.

± gives the uncertainty stated by the source.

The data set is described as follows: self-splicing fitness, log relative to wild type (ln ratio); higher = more splicing; Tetrahymena group I intron in knt gene, E. coli kanamycin selection, DiMSum; sequences stand for … in CUCUCU…GGAGGGAAAAGUUAUCAGGCAUGCACCUGGUAGCUAGUCUUUAAACCAAUAGAUUGCAUCGGUUUAAAAGGCAAGACCGUCAAAUUGCGGGAAAGGGGUCAACAGCCGUUCAGUACCAAGUCUCAGGGGAAACUUUGAGAUGGCCUUGCAAAGGGUAUGGUAAUAAGCUGACGGACAUGGUCCUAACCACGCAGCCAAGUCCUAAGUCAACAGAUCUUCUGUUGAUAUGGAUGCAGUUCACAGACUAAAUGUCGGUCGGGGAAGAUGUAUUCUUCUCAUAAGAUAUAGUCGGACCUCUCCUUAAUGGGAGCUAGCGGAUGAAGUGAUGCAACACUGGAGCCGCUGGGAACUAAUUUGUAUGCGAAAGUAUAUUGAUUAGUUUUGGAGUACUCGUGGUCG
Summed up:
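A randomised library covering all eight P1ex-region intron nucleotides was built with the intron in the knt kanamycin-resistance gene on pET-22b(+) and held in E. coli BL21(DE3). Cells were grown overnight at 37°C or 30°C on LB agar, with or without 25 μg/mL kanamycin, plus 100 μg/mL carbenicillin, 50 μM IPTG and 0.2% rhamnose, and pooled colonies were amplicon-sequenced on an Illumina HiSeq 2500. DiMSum fitness is the error-weighted combination of wild-type-normalised replicate fold changes, kanamycin versus none.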

With CCCGAGCAAUAUUACGGUAG, the “self-splicing fitness (ln)” value reads like this: (30 °C) -3.16 ± 0.18; (37 °C) -2.35 ± 0.17. On to AUAAAGCAAUAUUACGUAAC, for which the “self-splicing fitness (ln)” value (30 °C) is -1.92 ± 0.13 and the “self-splicing fitness (ln)” value (37 °C) is -0.901 ± 0.17. Take GUUUAGCAAUAUUACGCGCG: the “self-splicing fitness (ln)” value (30 °C) was -0.802 ± 0.1 and the “self-splicing fitness (ln)” value (37 °C) was -0.0312 ± 0.18.

With UUCCAGCAAUAUUACGACUC, the “self-splicing fitness (ln)” value reads like this: (30 °C) -3.04 ± 0.24; (37 °C) -1.67 ± 0.19. As to AGCUAGCAAUAUUACGUACG, the “self-splicing fitness (ln)” value was -1.85 ± 0.07 (30 °C) and -1.21 ± 0.081 (37 °C). The like results for CUAAAGCAAUAUUACGUGCG were, in that order, -0.674 ± 0.093 and 0.0651 ± 0.12. Turning to CGAAAGCAAUAUUACGCCAG, the “self-splicing fitness (ln)” value by setting is: (30 °C) -0.884 ± 0.14; (37 °C) -0.307 ± 0.21. In the same order, the values of GCGUAGCAAUAUUACGGUCA are -0.597 ± 0.081 and -0.142 ± 0.083. With UAUCAGCAAUAUUACGUGCG, the “self-splicing fitness (ln)” value (30 °C) is -0.0936 ± 0.087 and the “self-splicing fitness (ln)” value (37 °C) came to 0.327 ± 0.11. For ACUGAGCAAUAUUACGCGGU, for the setting “30 °C”, the “self-splicing fitness (ln)” value was -2.46 ± 0.31.

Regarding UGGAAGCAAUAUUACGUCAA, the “self-splicing fitness (ln)” value is, setting by setting: (30 °C) -1.53 ± 0.12; (37 °C) -0.758 ± 0.13. On to ACCGAGCAAUAUUACGGAAG, for which the “self-splicing fitness (ln)” value reads like this: (30 °C) -4.18 ± 0.34; (37 °C) -1.93 ± 0.43. As for UCAGAGCAAUAUUACGCCGG, the “self-splicing fitness (ln)” value (30 °C) is -2.92 ± 0.24. Turning to UCAUAGCAAUAUUACGGGCG, the “self-splicing fitness (ln)” value by setting is: (30 °C) -1.12 ± 0.096; (37 °C) -0.909 ± 0.12. AGUCAGCAAUAUUACGUGAC: the “self-splicing fitness (ln)” value (30 °C) was -2.96 ± 0.24 and the “self-splicing fitness (ln)” value (37 °C) is -2.86 ± 0.2.

As to UCGAAGCAAUAUUACGCCGG, the “self-splicing fitness (ln)” value is, setting by setting: (30 °C) -2.32 ± 0.13; (37 °C) -2.18 ± 0.19.

For the sequence CCAUAGCAAUAUUACGUUGG, the “self-splicing fitness (ln)” value reads like this: (30 °C) -4.37 ± 0.25; (37 °C) -3.27 ± 0.24. For CUAAAGCAAUAUUACGUACA, the “self-splicing fitness (ln)” value by setting is: (30 °C) -2.52 ± 0.14; (37 °C) -0.872 ± 0.18. As to GGAUAGCAAUAUUACGGCAU, the “self-splicing fitness (ln)” value is, setting by setting: (30 °C) -0.507 ± 0.09; (37 °C) 0.598 ± 0.11. In the same order, the values of ACCAAGCAAUAUUACGGGUC are -4.12 ± 0.17 and -2.67 ± 0.14.

Consider GCGCAGCAAUAUUACGCUAC, for which the “self-splicing fitness (ln)” value by setting is: (30 °C) -1.82 ± 0.17; (37 °C) -1.71 ± 0.3. With GUCGAGCAAUAUUACGGGCU, the “self-splicing fitness (ln)” value was -2.06 ± 0.23 (30 °C) and -1.53 ± 0.28 (37 °C). With CCGCAGCAAUAUUACGGUCG, the “self-splicing fitness (ln)” value (30 °C) is -0.439 ± 0.053 and the “self-splicing fitness (ln)” value (37 °C) was 0.0144 ± 0.066. Turning to UGAUAGCAAUAUUACGAGUU, the “self-splicing fitness (ln)” value reads like this: (30 °C) -3.82 ± 0.24; (37 °C) -2.73 ± 0.21. In the same order, the values of UCCAAGCAAUAUUACGGCAC are -4.06 ± 0.29 and -0.668 ± 0.11.

In the case of AUCUAGCAAUAUUACGCGCC, the “self-splicing fitness (ln)” value by setting is: (30 °C) -0.659 ± 0.17; (37 °C) -0.398 ± 0.16. GACGAGCAAUAUUACGCGAC: the “self-splicing fitness (ln)” value runs as follows: (30 °C) -2.09 ± 0.26; (37 °C) -1.04 ± 0.27. The like results for GCGGAGCAAUAUUACGGCGU were, in that order, -3.49 ± 0.33 and -2.08 ± 0.31. For the sequence UAGAAGCAAUAUUACGACCU, the “self-splicing fitness (ln)” value was 0.0379 ± 0.17 (30 °C) and -1.35 ± 0.14 (37 °C).

Turning to CAGUAGCAAUAUUACGACUU, the “self-splicing fitness (ln)” value runs as follows: (30 °C) 0.0553 ± 0.058; (37 °C) 0.35 ± 0.071. As to GUACAGCAAUAUUACGAUGG, the “self-splicing fitness (ln)” value was -3.3 ± 0.17 (30 °C) and -2.48 ± 0.17 (37 °C).

For the sequence UACCAGCAAUAUUACGACAG, the “self-splicing fitness (ln)” value by setting is: (30 °C) -1.2 ± 0.056; (37 °C) -0.278 ± 0.076. The like results for GGGUAGCAAUAUUACGAGAU were, in that order, -2.43 ± 0.19 and -1.59 ± 0.21.

Consider UUUCAGCAAUAUUACGAUUU, for which the “self-splicing fitness (ln)” value (30 °C) was -1.34 ± 0.098 and the “self-splicing fitness (ln)” value (37 °C) is -0.0319 ± 0.12. For UUACAGCAAUAUUACGACUC, the “self-splicing fitness (ln)” value was -2.69 ± 0.24 (30 °C) and -1.28 ± 0.2 (37 °C). The like results for CAGAAGCAAUAUUACGACAA were, in that order, -2.84 ± 0.36 and -1.88 ± 0.31. In the same order, the values of AGGCAGCAAUAUUACGUAAA are -2 ± 0.085 and -0.673 ± 0.099. In the case of AUGGAGCAAUAUUACGCGUA, the “self-splicing fitness (ln)” value is -2.62 ± 0.44 (30 °C) and -2.09 ± 0.31 (37 °C).
